Assay results reported in US20190227063A1.

Experiments:
[1] = biological target: HLA-A*02:01 in complex with PRAME300-309 peptide …, on T2 cells expressing the PresentER ALY minigene (human); assay: flow cytometry histograms, T2 cells expressing PresentER minigenes
[2] = biological target: HLA-A*02:01 in complex with WT1 aa126-134 peptide …, on T2 cells expressing the PresentER RMF minigene (human); assay: >

| Substance | fluorescence units (FU) [1] | fluorescence units (FU) [2] |
| --- | --- | --- |
| ESK1 TCR mimic (TCRm) monoclonal antibody | < 1000 FU | 1000 > |
| Pr20 TCR mimic (TCRm) monoclonal antibody | > 1100 FU |  |
